Laboratory results reported in patent US20120219559A1 (Johns Hopkins, published 2012).

Columns and labels:
[1] = biological target: human B7-H2, full length, expressed on cells (B7-H2+293T cells) (human) (UniProt O75144); assay: cell-based or functional assay
PD-1Ig = biological target: T1, PD-1Ig (Mus musculus, UniProt Q02242); assay: CDS well image, 293T cells transfected with the mouse gene, stained with the mouse fusion protein
T1 construct: Ig fusion protein purchased from R&D systems; also called mouse PD-1Ig fusion protein
T1 sequence (fusion protein, looked up): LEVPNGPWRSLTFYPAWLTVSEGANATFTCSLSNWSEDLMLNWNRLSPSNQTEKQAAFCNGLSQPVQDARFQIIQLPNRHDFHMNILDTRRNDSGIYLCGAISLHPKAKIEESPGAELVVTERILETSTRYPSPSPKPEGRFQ

B7-DCIg = biological target: T2, B7-DCIg (Mus musculus, UniProt Q9WUL5); assay: as above
T2 construct: Ig fusion protein purchased from R&D systems; also called mouse B7-DCIg fusion protein
T2 sequence (fusion protein, looked up): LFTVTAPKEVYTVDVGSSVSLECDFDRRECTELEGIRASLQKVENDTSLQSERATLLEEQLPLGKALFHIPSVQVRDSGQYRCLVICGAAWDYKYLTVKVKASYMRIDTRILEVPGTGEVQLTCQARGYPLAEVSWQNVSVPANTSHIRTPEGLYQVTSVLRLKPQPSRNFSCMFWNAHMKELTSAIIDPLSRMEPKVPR

B7-H2Ig = biological target: T3, B7-H2Ig (Mus musculus, UniProt Q9JHJ8); assay: as above
T3 construct: Ig fusion protein purchased from R&D systems; also called mouse B7-H2Ig fusion protein
T3 sequence (fusion protein, looked up): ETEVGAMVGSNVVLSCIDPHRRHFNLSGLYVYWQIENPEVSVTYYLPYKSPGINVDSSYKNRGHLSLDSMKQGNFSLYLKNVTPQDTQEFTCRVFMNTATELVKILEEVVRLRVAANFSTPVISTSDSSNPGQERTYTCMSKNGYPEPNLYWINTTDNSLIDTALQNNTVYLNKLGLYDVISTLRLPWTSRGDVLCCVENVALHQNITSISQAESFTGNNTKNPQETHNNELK

[2] = biological target: T4, mouse CD28Ig fusion protein (mouse, UniProt P31041 20-149); assay: as above
T4 construct: Bought from R&D Systems; Ig (Fc) part not given
T4 sequence (looked up): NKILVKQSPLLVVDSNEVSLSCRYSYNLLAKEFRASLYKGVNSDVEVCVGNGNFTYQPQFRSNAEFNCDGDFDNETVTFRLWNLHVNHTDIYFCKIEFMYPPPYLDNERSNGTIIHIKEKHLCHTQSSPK

[3] = biological target: T5, mouse CTLA-4Ig fusion protein (mouse, UniProt P09793 36-162); assay: as above
T5 construct: Bought from R&D Systems; Ig (Fc) part not given

B7-H1Ig = biological target: T6, B7-H1Ig (Mus musculus, UniProt Q9EP73); assay: as above
T6 construct: Ig fusion protein purchased from R&D systems; also called mouse B7-H1Ig fusion protein
T6 sequence (Q9EP73 19-238 limits assumed): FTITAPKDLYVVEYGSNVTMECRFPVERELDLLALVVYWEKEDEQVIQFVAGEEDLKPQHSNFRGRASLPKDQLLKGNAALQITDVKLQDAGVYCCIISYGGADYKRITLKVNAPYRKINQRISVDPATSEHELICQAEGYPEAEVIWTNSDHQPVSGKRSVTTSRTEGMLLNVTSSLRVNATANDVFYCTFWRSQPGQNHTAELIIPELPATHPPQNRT

ICOSIg = biological target: T7, ICOSIg (Mus musculus, UniProt Q9WVS0); assay: as above
T7 construct: Ig fusion protein purchased from R&D systems; also called mouse ICOSIg fusion protein
T7 sequence (fusion protein, looked up): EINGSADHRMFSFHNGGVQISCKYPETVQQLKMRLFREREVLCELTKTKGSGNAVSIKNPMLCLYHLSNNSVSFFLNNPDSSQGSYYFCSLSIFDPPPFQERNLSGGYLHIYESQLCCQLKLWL

[4] = biological target: T8, human B7-H1 expressed on 293T cells (human, UniProt Q9NZQ7 19-290); assay: CDS well image, 293T cells transfected with the human gene, stained with the human fusion protein
T8 construct: whole, on cells
T8 sequence (Q9NZQ7 19-290): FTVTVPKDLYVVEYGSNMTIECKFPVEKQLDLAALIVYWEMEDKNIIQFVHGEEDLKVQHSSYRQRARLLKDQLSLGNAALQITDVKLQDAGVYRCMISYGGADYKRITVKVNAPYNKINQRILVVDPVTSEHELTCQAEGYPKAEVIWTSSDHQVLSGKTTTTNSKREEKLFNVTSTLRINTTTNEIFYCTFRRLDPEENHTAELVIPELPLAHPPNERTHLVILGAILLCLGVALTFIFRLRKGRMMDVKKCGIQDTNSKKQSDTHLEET

[5] = biological target: T9, human B7-1 (CD80) expressed on 293T cells (human, UniProt P33681 35-288); assay: as above
T9 construct: whole, on cells
T9 sequence (looked up): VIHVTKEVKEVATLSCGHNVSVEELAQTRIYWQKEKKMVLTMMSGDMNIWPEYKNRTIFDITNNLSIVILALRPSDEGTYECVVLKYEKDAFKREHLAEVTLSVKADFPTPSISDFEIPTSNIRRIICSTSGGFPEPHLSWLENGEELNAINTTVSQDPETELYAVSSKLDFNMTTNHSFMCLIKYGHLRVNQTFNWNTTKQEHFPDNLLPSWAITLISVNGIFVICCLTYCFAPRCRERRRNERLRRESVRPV

[6] = biological target: T10, human B7-H2, full length, expressed on cells (B7-H2+293T cells) (human, UniProt O75144 19-302); assay: as above
T10 construct: This id also stands for endogenous B7-H2 on monocyte-derived dendritic cells in the functional rows; also called ICOSL; ICOSLG
T10 sequence: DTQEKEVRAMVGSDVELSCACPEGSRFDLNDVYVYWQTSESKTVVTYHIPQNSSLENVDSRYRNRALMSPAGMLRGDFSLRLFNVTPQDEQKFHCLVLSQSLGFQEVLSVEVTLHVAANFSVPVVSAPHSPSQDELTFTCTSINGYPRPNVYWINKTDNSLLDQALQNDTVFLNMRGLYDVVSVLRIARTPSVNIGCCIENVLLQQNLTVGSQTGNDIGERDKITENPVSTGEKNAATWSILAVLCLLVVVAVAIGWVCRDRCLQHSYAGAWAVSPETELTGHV

[7] = biological target: T11, human B7-DC expressed on 293T cells (human, UniProt Q9BQ51 20-273); assay: as above
T11 construct: whole, on cells
T11 sequence (looked up): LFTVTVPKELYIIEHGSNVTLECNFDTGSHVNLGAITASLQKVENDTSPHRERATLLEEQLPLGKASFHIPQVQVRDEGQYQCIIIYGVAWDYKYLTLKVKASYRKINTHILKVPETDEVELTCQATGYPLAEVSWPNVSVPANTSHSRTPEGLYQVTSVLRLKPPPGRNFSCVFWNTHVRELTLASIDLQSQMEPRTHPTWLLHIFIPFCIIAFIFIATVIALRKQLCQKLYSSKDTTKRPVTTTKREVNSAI

[8] = biological target: T12, human B7-2 (CD86, B70) expressed on 293T cells (human, UniProt P42081 24-329); assay: as above
T12 construct: whole, on cells
T12 sequence (looked up): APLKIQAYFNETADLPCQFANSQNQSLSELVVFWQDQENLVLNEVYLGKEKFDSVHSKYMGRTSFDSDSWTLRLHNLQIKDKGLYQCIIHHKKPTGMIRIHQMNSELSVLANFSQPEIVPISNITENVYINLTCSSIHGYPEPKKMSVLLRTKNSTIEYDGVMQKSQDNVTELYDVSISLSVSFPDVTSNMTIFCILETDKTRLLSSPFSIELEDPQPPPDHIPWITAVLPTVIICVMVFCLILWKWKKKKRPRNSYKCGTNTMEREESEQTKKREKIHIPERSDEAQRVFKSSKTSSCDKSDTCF

[9] = biological target: T13, human CD28, full length, expressed on cells (CD28+293T cells) (human, UniProt P10747 19-220); assay: as above
T13 construct: This id also stands for CD28 on purified human T cells in the functional rows; also called CD28+ cells
T13 sequence (P10747 19-220): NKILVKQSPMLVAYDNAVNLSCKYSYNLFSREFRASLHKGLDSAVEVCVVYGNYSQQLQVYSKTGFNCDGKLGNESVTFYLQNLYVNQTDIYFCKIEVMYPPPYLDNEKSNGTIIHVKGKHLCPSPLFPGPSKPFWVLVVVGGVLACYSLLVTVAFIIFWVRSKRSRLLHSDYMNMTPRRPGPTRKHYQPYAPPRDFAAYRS

binding result (B7-H2Ig) | Molecule | binding result (PD-1Ig) | binding result (B7-DCIg) | binding result [2] | binding result [3] | binding result (B7-H1Ig) | binding result (ICOSIg) | also measured
 | mouse anti-human B7-H2 mAb 9F.8A4 (antibody) |  |  |  |  |  |  | tetanus toxoid-elicited IFNγ production of memory T cells; inhibition [1]: > 90%; tetanus toxoid-elicited proliferation of memory T cells; inhibition [1]: > 50%
no binding | B7-DC (ligand, Mus musculus, UniProt Q9WUL5 20-247, looked up) membrane protein: LFTVTAPKEVYTVDVGSSVSLECDFDRRECTELEGIRASLQKVENDTSLQSERATLLEEQLPLGKALFHIPSVQVRDSGQYRCLVICGAAWDYKYLTVKVKASYMRIDTRILEVPGTGEVQLTCQARGYPLAEVSWQNVSVPANTSHIRTPEGLYQVTSVLRLKPQPSRNFSCMFWNAHMKELTSAIIDPLSRMEPKVPRTWPLHVFIPACTIALIFLAIVIIQRKRI |  |  |  |  |  |  | 
no binding | B7-1 (ligand) VDEQLSKSVKDKVLLPCRYNSPHEDESEDRIYWQKHDKVVLSVIAGKLKVWPEYKNRTLYDNTTYSLIILGLVLSDRGTYSCVVQKKERGTYEVKHLALVKLSIKADFSTPNITESGNPSADTKRITCFASGGFPKPRFSWLENGRELPGINTTISQDPESELYTISSQLDFNTTRNHTIKCLIKYGDAHVSEDFTWEKPPEDPPDSKNTLVLFGAGFGAVITVVVIVVIIKCFCKHRSCFRRNEASRETNNSLTFGPEEALAEQTVFL | no binding | no binding | binds | binds | binds | no binding | 
 | B7-DCIg (Fc fusion, Homo sapiens, UniProt Q9BQ51 20-219, looked up, Ig fusion protein purchased from R&D systems; also called human B7-DCIg fusion protein) fusion protein: LFTVTVPKELYIIEHGSNVTLECNFDTGSHVNLGAITASLQKVENDTSPHRERATLLEEQLPLGKASFHIPQVQVRDEGQYQCIIIYGVAWDYKYLTLKVKASYRKINTHILKVPETDEVELTCQATGYPLAEVSWPNVSVPANTSHSRTPEGLYQVTSVLRLKPPPGRNFSCVFWNTHVRELTLASIDLQSQMEPRTHP |  |  |  |  |  |  | binding result [4]: no binding; binding result [5]: no binding; binding result [6]: no binding; binding result [7]: no binding; binding result [8]: no binding; binding result [9]: no binding

Molecule | binding result (B7-H2Ig) | binding result (PD-1Ig) | binding result (B7-DCIg) | binding result [2] | binding result [3] | binding result (B7-H1Ig) | binding result (ICOSIg) | also measured
B7-2 (ligand) VSVETQAYFNGTAYLPCPFTKAQNISLSELVVFWQDQQKLVLYEHYLGTEKLDSVNAKYLGRTSFDRNNWTLRLHNVQIKDMGSYDCFIQKKPPTGSIILQQTLTELSVIANFSEPEIKLAQNVTGNSGINLTCTSKQGHPKPKKMYFLITNSTNEYGDNMQISQDNVTELFSISNSLSLSFPDGVWHMTVVCVLETESMKISSKPLNFTQEFPSPQTYWKEITASVTVALLLVMLLIIVCHKKPNQPSRPSNTASKLERDSNADRETINLKELEPQIASAKPNAE | no binding | no binding | no binding | binds | binds | no binding | no binding | 
